Data on ten molecules can be found in patent US20170319722A1.

Square brackets hold non-standard residues; d marks the D form. Primed or numbered codes have the meaning given here. Ends that are not written are not given here. * marks the point of attachment. PEG3′ = PEG linker of three ethylene glycol repeat units; Biotin = O=C1N[C@H]2[C@H](CS[C@H]2CCCCC(=O)*)N1; Lys(N3) = [N-]=[N+]=NCCCC[C@H](N)C(=O)O; Pra = C#CC[C@H](N)C(=O)O

Experiment [1] has as its target His-tagged CD8α human recombinant protein (TP760215, Origene) (human) (UniProt P01732). Put plainly: sandwich ELISA; biotinylated ligand on NeutrAvidin plate, His-tagged CD8α titrated, anti-His-AP detection. Background: ELISA stands for enzyme-linked immunosorbent assay.
Experiment [2] concerns the target His-tagged CD8α human recombinant protein (MBS968456, MyBioSource) (human) (UniProt P01732). Put plainly: sandwich ELISA; biotinylated biligand on NeutrAvidin plate, His-tagged CD8α titrated, anti-His-AP detection.
The target is the same in experiment [3]. Put plainly: sandwich ELISA; biligand against its single macrocycles Cy(HGRGH) and Cy(wplrf).
Experiment [4] addresses His-tagged CD8α human recombinant protein (TP760215, Origene) (human) (UniProt P01732). Put plainly: sandwich ELISA; range told of the group, upper end tied to Cy(rwfnv) by the legend of FIG. 5.
For experiment [5], the target named is His-tagged CD8α human recombinant protein (MBS968456, MyBioSource) (human) (UniProt P01732). Put plainly: sandwich ELISA; biotinylated biligand on NeutrAvidin plate, His-tagged CD8α titrated.
Experiment [6] shares this target. Put plainly: ELISA with His-tagged CD8α human recombinant protein.

Sequence of His-tagged CD8α human recombinant protein (MBS968456, MyBioSource) (human) (P01732 22-182 limits assumed): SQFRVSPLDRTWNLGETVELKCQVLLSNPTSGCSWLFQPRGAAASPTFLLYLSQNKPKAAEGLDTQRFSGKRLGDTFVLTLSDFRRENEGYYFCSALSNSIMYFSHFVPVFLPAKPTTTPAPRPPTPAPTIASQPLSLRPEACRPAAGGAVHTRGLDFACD
Sequence of His-tagged CD8α human recombinant protein (TP760215, Origene) (human) (P01732 22-182 limits assumed): as above

B1: biotin-PEG3-Cy(wsvnv) (peptide)
peptide: WSVNV
modifications: all residues D-amino acids (lower case); N-terminal biotin-PEG3; triazole-cyclized (Cy) between flanking Pra and Az4
The EC50 is the concentration that produces a half-maximal response. Consider B1, for which the EC50 in experiment [1] turned out to be 9 nM.

B2: biotin-PEG3-Cy(ffrly) (peptide)
peptide: FFRLY
modifications: all residues D-amino acids (lower case); N-terminal biotin-PEG3; triazole-cyclized (Cy) between flanking Pra and Az4
Take B2: the EC50 in experiment [1] was found to be 56 nM.

B3: Biotin-PEG3-Cy(HGRGH)-PEG5-Cy(wplrf) (peptide)
peptide 1: {Biotin-PEG3′}-[Pra]HGRGH
peptide 2: [Pra][dW][dP][dL][dR][dF]
modifications: not fully specified (some residues, C-terminus); printed as Biotin-PEG3-Cy(HGRGH)-PEG5-Cy(wplrf); numbers in words are those of the source; also: joined C-terminally through a PEG5 linker to the second macrocycle, triazole to a chain's N/C-terminus
As to B3, the EC50 in experiment [2] was determined as 0.2 nM. In addition, the fold improvement in affinity relative to the individual PCC macrocyclic ligands in experiment [3] is greater than 30 fold.

B4: biotin-PEG3-Cy(rwfnv) (peptide)
peptide: RWFNV
modifications: all residues D-amino acids (lower case); N-terminal biotin-PEG3; triazole-cyclized (Cy) between flanking Pra and Az4
As to B4, the EC50 in experiment [4] and in experiment [1] was 62 nM throughout.

B5: Biotin-PEG3-Cy(HGRGH)-PEG4-Cy(wplrf) (peptide)
peptide 1: {Biotin-PEG3′}-[Pra]HGRGH
peptide 2: [Pra][dW][dP][dL][dR][dF]
modifications: not fully specified (some residues, C-terminus); printed as Biotin-PEG3-Cy(HGRGH)-PEG4-Cy(wplrf); numbers in words are those of the source; also: joined C-terminally through a PEG4 linker to the second macrocycle, triazole to a chain's N/C-terminus
Regarding B5, in experiment [5], the fold below the affinity of the optimal linker (PEG5) biligand was 10 fold.

B6: Cy(Ghtwp)-Lys(Biotin)-PEG1-Cy(hGrGh) (peptide)
peptide 1: [Pra]G[dH][dT][dW][dP]
peptide 2: [Pra][dH]G[dR]G[dH][Lys(N3)]
modifications: not fully specified (C-terminus); printed as Cy(Ghtwp)-Lys(Biotin)-PEG1-Cy(hGrGh); also: triazole to a chain's N/C-terminus, triazole to a chain's N/C-terminus
For B6, the EC50 in experiment [6] was 0.058 nM.

B7: Biotin-PEG3-Cy(HGRGH)-PEG3-Cy(wplrf) (peptide)
peptide 1: {Biotin-PEG3′}-[Pra]HGRGH
peptide 2: [Pra][dW][dP][dL][dR][dF]
modifications: not fully specified (some residues, C-terminus); numbers in words are those of the source; also: joined C-terminally through a PEG3 linker to the second macrocycle, triazole to a chain's N/C-terminus
Regarding B7, the fold below the affinity of the optimal linker (PEG5) biligand in experiment [5] was found to be 10 fold.

B8: Biotin-PEG3-Cy(HGRGH)-PEG6-Cy(wplrf) (peptide)
peptide 1: {Biotin-PEG3′}-[Pra]HGRGH
peptide 2: [Pra][dW][dP][dL][dR][dF]
modifications: not fully specified (some residues, C-terminus); printed as Biotin-PEG3-Cy(HGRGH)-PEG6-Cy(wplrf); numbers in words are those of the source; also: joined C-terminally through a PEG6 linker to the second macrocycle, triazole to a chain's N/C-terminus
Regarding B8, the fold below the affinity of the optimal linker (PEG5) biligand in experiment [5] is 10 fold.

B9: Biotin-PEG3-Cy(HGRGH)-PEG7-Cy(wplrf) (peptide)
peptide 1: {Biotin-PEG3′}-[Pra]HGRGH
peptide 2: [Pra][dW][dP][dL][dR][dF]
modifications: not fully specified (some residues, C-terminus); printed as Biotin-PEG3-Cy(HGRGH)-PEG7-Cy(wplrf); numbers in words are those of the source; also: joined C-terminally through a PEG7 linker to the second macrocycle, triazole to a chain's N/C-terminus
As for B9, the fold below the affinity of the optimal linker (PEG5) biligand in experiment [5] was determined as 10 fold.

B10: biotin-PEG3-Cy(wplrf) (peptide)
peptide: WPLRF
modifications: all residues D-amino acids (lower case); N-terminal biotin-PEG3; triazole-cyclized (Cy) between flanking Pra and Az4
With B10, the 50% effective concentration (EC50) in experiment [1] stood at 16 nM.
